Test results as given in patent publication US20140377282A1 (APEXIGEN, published 2014).

T1: rabbit Fc-fusion protein of human VEGFR3 (human; rabbit, UniProt P35916 25-775, limits assumed)
T1 construct: not shown: rabbit immunoglobulin Fc
T1 sequence (looked up): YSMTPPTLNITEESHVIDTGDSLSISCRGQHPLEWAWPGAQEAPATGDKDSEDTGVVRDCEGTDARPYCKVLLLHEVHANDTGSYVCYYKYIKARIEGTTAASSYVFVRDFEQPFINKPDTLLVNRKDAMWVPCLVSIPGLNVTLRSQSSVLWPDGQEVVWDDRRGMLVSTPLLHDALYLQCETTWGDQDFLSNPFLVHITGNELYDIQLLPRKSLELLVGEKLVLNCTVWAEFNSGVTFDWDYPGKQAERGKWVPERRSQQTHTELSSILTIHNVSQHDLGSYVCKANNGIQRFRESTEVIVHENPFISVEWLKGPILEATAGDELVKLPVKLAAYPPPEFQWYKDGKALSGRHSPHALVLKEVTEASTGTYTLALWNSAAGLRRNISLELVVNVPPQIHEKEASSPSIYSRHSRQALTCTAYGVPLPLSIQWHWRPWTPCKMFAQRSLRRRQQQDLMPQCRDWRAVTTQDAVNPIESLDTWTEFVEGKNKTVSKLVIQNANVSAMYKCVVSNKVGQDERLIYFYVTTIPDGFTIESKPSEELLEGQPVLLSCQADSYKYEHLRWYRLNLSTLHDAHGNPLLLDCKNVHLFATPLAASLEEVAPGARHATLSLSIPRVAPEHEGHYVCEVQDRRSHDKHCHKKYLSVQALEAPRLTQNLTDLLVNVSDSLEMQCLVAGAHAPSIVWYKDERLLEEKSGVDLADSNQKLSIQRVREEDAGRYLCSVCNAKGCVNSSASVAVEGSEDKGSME


Legend:
[1] = target: T2, recombinant human KDR (human, UniProt P35968 20-764, limits assumed); assay: inhibition of KDR binding to VEGF, ligand-receptor binding assay
T2 construct: also called VEGFR2
T2 sequence (P35968 20-764 limits assumed): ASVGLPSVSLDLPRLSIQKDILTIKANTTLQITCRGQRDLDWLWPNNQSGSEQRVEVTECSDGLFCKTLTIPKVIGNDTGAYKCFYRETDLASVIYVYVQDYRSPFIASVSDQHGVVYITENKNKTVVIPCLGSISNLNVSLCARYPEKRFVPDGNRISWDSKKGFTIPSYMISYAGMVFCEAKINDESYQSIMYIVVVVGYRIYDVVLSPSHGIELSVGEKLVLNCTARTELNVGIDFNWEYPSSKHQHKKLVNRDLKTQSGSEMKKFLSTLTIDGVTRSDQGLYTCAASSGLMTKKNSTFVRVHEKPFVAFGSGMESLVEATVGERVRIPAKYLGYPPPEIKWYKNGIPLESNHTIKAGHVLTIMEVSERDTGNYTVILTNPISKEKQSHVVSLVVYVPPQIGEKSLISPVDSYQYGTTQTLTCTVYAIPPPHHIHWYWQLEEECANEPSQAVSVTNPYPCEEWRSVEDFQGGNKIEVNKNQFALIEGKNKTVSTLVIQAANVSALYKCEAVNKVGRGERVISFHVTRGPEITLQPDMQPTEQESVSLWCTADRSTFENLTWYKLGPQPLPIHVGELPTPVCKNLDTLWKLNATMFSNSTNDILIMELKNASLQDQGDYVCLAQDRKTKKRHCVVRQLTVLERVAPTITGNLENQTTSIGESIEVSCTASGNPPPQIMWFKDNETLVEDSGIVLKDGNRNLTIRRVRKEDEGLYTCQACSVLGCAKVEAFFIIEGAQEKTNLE

[2] = target: T2, recombinant human KDR; assay: ELISA: antibody pre-incubated with 5 µg/ml recombinant human KDR, then transferred to a VEGF-coated plate; KDR bound to VEGF detected (OD405); blocked ligand VEGF
Procedure: (§1) An ELISA-based KDR-VEGF binding assay was developed and used to assess the potency of APX004 at blocking KDR binding to VEGF. A total of 2 μg/ml VEGF was coated on ELISA plates. APX004, the parental rabbit antibody R-36 or IgG1 isotype control antibody were pre-incubated with 5 μg/ml recombinant human KDR before being transferred to the VEGF-A coated ELISA plates. KDR bound to immobilized VEGF was detected by a mouse anti-KDR monoclonal antibody, followed by the addition of goat anti-mouse IgG conjugated with alkaline phosphatase (Fisher Scientific/Pierce Biotechnology, Rockford, Ill.). ELISA plates were developed with p-nitrophenyl phosphate substrate and absorbance at 405 nm was recorded. All experiments were performed in triplicate.

[3] = target: T2, recombinant human KDR; assay: method not stated
[4] = target: T3, mouse KDR (mouse, UniProt P35918 20-762, limits assumed); assay: restated in the summary of the Examples
T3 construct: also called murine KDR
T3 sequence (P35918 20-762 limits assumed): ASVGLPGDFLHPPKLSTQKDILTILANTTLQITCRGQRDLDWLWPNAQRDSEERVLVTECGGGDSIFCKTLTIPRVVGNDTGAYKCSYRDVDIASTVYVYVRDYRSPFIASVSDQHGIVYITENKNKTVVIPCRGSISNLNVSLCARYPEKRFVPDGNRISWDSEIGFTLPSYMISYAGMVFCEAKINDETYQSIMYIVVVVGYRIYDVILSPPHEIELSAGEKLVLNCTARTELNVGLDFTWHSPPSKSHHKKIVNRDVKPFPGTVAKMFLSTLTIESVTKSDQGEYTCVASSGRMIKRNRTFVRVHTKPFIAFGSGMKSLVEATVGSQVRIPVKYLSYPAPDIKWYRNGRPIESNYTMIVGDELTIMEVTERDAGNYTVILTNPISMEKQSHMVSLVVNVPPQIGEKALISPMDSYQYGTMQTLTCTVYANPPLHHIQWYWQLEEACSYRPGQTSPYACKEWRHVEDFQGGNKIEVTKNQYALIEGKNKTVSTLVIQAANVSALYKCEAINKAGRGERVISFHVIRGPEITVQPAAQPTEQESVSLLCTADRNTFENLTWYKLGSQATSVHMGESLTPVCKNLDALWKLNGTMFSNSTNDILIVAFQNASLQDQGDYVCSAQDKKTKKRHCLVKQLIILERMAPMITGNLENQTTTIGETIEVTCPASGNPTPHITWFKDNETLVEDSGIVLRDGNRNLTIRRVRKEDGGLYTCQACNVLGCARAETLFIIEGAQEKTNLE

[5] = target: T4, rabbit Fc-fusion protein of mouse KDR (mouse; rabbit, UniProt P35918 20-762, limits assumed); assay: direct ELISA: 1 µg/ml protein coated, 1 µg/ml APX004, goat anti-human HRP-conjugated IgG
T4 construct: not shown: rabbit immunoglobulin Fc
T4 sequence (P35918 20-762 limits assumed): as above
Procedure: (§2) Binding selectivity of APX004 was assessed by direct ELISA to VEGFR family proteins. A total of 1 μg/ml of rabbit Fc-fusion protein of human KDR, mouse KDR, human VEGFR1, human VEGFR3, human OX40L and human VEGF were coated on ELISA plates followed by incubation with 1 μg/ml of APX004. Bound APX004 was detected using goat anti-human HRP-conjugated IgG.

[6] = target: T5, rabbit Fc-fusion protein of human VEGFR1 (human; rabbit, UniProt P17948 27-758, limits assumed); assay: as above
T5 construct: also called Flt-1; not shown: rabbit immunoglobulin Fc
T5 sequence (P17948 27-758 limits assumed): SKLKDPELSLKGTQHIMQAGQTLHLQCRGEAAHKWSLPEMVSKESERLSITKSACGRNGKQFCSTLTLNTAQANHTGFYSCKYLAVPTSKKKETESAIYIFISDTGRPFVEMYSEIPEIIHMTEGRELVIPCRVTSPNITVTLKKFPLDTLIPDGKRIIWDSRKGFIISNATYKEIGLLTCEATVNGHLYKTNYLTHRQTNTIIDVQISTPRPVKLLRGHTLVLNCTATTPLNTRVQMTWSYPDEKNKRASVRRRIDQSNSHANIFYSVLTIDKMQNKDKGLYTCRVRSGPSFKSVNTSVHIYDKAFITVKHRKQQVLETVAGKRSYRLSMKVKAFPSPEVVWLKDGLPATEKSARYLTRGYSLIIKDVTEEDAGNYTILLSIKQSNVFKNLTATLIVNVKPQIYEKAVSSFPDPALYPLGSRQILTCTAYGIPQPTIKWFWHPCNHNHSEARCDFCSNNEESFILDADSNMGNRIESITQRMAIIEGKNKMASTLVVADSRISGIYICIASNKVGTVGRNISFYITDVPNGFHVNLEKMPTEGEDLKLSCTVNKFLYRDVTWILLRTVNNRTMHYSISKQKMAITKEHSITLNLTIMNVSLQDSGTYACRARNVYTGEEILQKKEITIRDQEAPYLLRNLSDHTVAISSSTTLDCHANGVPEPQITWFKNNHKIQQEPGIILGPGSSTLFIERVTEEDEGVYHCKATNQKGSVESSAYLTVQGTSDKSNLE
Procedure: as §2

[7] = target: T1, rabbit Fc-fusion protein of human VEGFR3; assay: as above
Procedure: as §2

[8] = target: T6, human VEGF (coated in the selectivity ELISA) (human, UniProt P15692-4 27-191, limits assumed); assay: as above
T6 construct: the sentence lists it last after 'rabbit Fc-fusion protein of'
T6 sequence (P15692 other isoform, or with tags, fused parts or gaps limits assumed): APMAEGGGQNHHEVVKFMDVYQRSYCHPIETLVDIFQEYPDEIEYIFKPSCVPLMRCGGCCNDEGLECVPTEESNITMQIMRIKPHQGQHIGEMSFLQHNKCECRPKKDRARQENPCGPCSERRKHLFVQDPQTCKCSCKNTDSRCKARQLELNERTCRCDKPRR
Procedure: as §2

[9] = target: T2, recombinant human KDR; assay: competition ELISA: APX004 pre-incubated with 5 µg/ml recombinant human KDR, then on coated VEGF-A; bound KDR detected
Procedure: as §1

Binder | IC50 [1] | further results
rabbit anti-KDR antibody clone 27 (antibody, V domains shown, rabbit monoclonal antibody, recombinantly expressed and purified for characterization) VH: QSVEESGGRLVTPGTPLTLTCTASGFALNDFAMSWVRQAPGKGLEWIGMIASSGNTFYASWAKGRFTISKTSTTVDLKFTSPTTEDTATYFCARVLWPGYIAYAYHNIWGPGTLVTVSS VL: DPVLTQTPASVSAVVGGTVTINCQTSEDIASNLAWYQQKSGQRPKLLIYEASKLASGVPSRFKGSGSGTEYTLTISDLECADAATYYCQYTYYGSSYLGAFGGGTEVVVK | 5.95 nM | –
clone 36 rabbit anti-KDR antibody (antibody, V domains shown, rabbit IgG, recombinantly expressed in 293-6E cells; also called R-36; parental rabbit monoclonal antibody 36) VH: QSVEESGGRLVTPGTPLTLTCTVSGIDLNNYAMSWVRQAPGKGLEWIGIIGSSGSIFYASWAKGRITISKTSTTVDLKFTSLTTEDTATYFCARVLWAGSVAYAYHNIWGPGTLVTVSS VL: DPVMTQTPASVSEPVGGTVTINCQASEELGSNLAWYQQKPGQPPKLLIYSASTLASGVPSRFKGSGSGTEYTLTISDLECADAATYYCQYTYFGSSYLGAFGGGTEVVVK | 6.25 nM | IC50 [2]: 3.1 nM
rabbit anti-KDR antibody clone 43 (antibody, V domains shown, rabbit monoclonal antibody, recombinantly expressed and purified for characterization) VH: QSVEESGGRLVTPGTPLTLTCTVSGFSLSSYAMSWFRQAPGKGLEWIGLIRSSGATYYASWAKGRFTISKASTTVDLKFTSPTTEDTATYFCARVLWPGDIAYAYHNIWGPGTLVTVSS VL: DLVMTQTPSPVSAAVGGTVTINCQASEEIGGNLAWYQQKPGQPPKLLIYSASTLTSGVPSRFKGSGSGTEYTLTISDLECADAATYYCQYTYYGFSYVGPFGGGTEVVVK | 7.54 nM | –
APX004 (humanized clone 36 anti-KDR antibody) (antibody, human IgG1, kappa, V domains shown, also called humanized 36) VH: EVQLVESGGGLVQPGGSLRLSCAASGFDLSSYAMSWVRQAPGKGLEWVGIIGSGGSTYYASWAKGRFTISKDSSKNTVYLQMNSLRAEDTAVYFCARVLWAGSVAYAYHNIWGPGTLVTVSS VL: DIQMTQSPSSLSASVGDRVTINCQASEELGSNLAWYQQKPGKPPKLLIYSASTLASGVPSRFSGSGSGTDYTLTISSLQPEDFATYYCQYTYFGSSYLGAFGGGTKVEIKR | – | Kd [3]: 0.053 nM; binding result [4]: binds; binding result [5]: binds; binding result [6]: no binding (tested: 1 µg/ml); binding result [7]: no binding (tested: 1 µg/ml); binding result [8]: no binding (tested: 1 µg/ml); IC50 [9]: 2.6 nM
rabbit anti-KDR antibody clone 15 (antibody, V domains shown, rabbit monoclonal antibody, recombinantly expressed and purified for characterization) VH: QSLEESGGDLVKPGTSLTLTCTASGFSFSARHFMYWVRQAPGKGLEWIGCIDIGSGSTYYTSWAKDRFTISKPSSTTVTLQMTSLTAADTATYFCARSSGYPYYFTLWGPGTLVTVSS VL: AVVLTQTTSSVSADVGGTVTIKCQASENIYSLLAWYQQKPGQPPKLLIYSASDLASGVPSRFSGSGFGTEFTLTISDLECADAATYHCQSYYYSGSSADTGAFGGGTEVVVK | 17.5 nM | –
rabbit anti-KDR antibody clone 92 (antibody, V domains shown, rabbit monoclonal antibody, recombinantly expressed and purified for characterization) VH: QSVEESGGRLVTPGTPLTLTCTVSGFSLSSNAMSWVRQAPGEGLEWIGTISSSGSTYYATWVKGRFTISKTSTTVDLKMTSLTAADTATYFCARGDDDVSDYFYYFPIWGPGTLVTVSS VL: AVVLTQTASPVSGAVGGTVTIKCQASQNIYNNLAWYRQKPGQPPKLLIYAASKLASGVPSRFSGSRSGTQFTLSISDLECADAATYYCQSYYFDSSSTDAAFGGGTEVVVK | 32.9 nM | –
rabbit anti-KDR antibody clone 24 (antibody, V domains shown, rabbit monoclonal antibody, recombinantly expressed and purified for characterization) VH: QSVEESGGRLVTPGTPLTLTCTVSGFSLSSNAMSWVRQAPGEGLEWIGTISSSGSTYYATWVKGRFTISKTSTTVDLKMTSLTAADTATYFCARGDDDVSDYFYYFPIWGPGTLVTVSS VL: AVVLTQTASPVSGAVGGTVTIKCQASQNIYNNLAWYRQKPGQPPKLLIYAASKLASGVPSRFSGSRSGTQFTLSISDLECADAATYYCQSYYFDSSSTDAAFGGGTEVVVK | 19.8 nM | –

Further lines, with some results ahead:

IC50 [1] | Binder | further results
9.77 nM | rabbit anti-KDR antibody clone 83 (antibody, V domains shown, rabbit monoclonal antibody, recombinantly expressed and purified for characterization) VH: QSLEESGGRLVTPGTPLTLTCTVSGIDLSAYAMSWVRQAPGKGLEWIGLIRSSGATYYASWAKGRFTISKTSTTVDLKMTSPTTEDTATYFCARVLWPGEIAYAYHNIWGPGTLVTVSS VL: DVVMTQTPASVSEPVGGTVTINCQASEEIGGNLAWYQQKPGQPPKLLIYSASSLTSGVPSRFKGSESGTEYTLTISDLECADAATYYCQYSYYGFNYVGPFGGGTEVVVK | –
4.56 nM | rabbit anti-KDR antibody clone 81 (antibody, V domains shown, rabbit monoclonal antibody, recombinantly expressed and purified for characterization) VH: QSVEESGGRLVTPGTPLTLTCTVSGFSLSTYAMSWFRQAPGKGLEWIGLIRSSGATYYASWAKGRFTISKASTTVDLKFTSPTTEDTATYFCARVLWPGDIAYAYHNIWGPGTLVTVSS VL: DLVMTQTPSPVSAAVGGTVTINCQASEEIGGNLAWYQQKPGQPPKLLIYSASTLTSGVPSRFKGSGSGTEYTLTINDLECADAATYYCQYPYYGFSYVGPFGGGTEVVVK | –
21.4 nM | rabbit anti-KDR antibody clone 23 (antibody, V domains shown, rabbit monoclonal antibody, recombinantly expressed and purified for characterization) VH: QSVEESGGRLVTPGTPLTLTCTVSGFSLSSNAMSWVRQAPGEGLEWIGTISSSGSTYYATWVKGRFTISKTSTTVDLKMTSLTAADTATYFCARGDDDVSDYFYYFPIWGPGTLVTVSS VL: AVVLTQTASPVSGAVGGTVTIKCQASQNIYNNLAWYRQKPGQPPKLLIYAASKLASGVPSRFSGSRSGTQFTLSISDLECADAATYYCQSYYFDSSSTDAAFGGGTEVVVK | –
